This is an account of results in PMC8036718, “Two Be or Not Two Be: The Nuclear Autoantigen La/SS-B Is Able to Form Dimers and Oligomers in a Redox Dependent Manner” (International Journal of Molecular Sciences, 2021).

B1: mono cysteine mutant of La protein (La_C18A) (natural protein, human, UniProt P05455 1-408, looked up)
chain: MAENGDNEKMAALEAKIAHQIEYYFGDFNLPRDKFLKEQIKLDEGWVPLEIMIKFNRLNRLTTDFNVIVEALSKSKAELMEISEDKTKIRRSPSKPLPEVTDEYKNDVKNRSVYIKGFPTDATLDDIKEWLEDKGQVLNIQMRRTLHKAFKGSIFVVFDSIESAKKFVETPGQKYKETDLLILFKDDYFAKKNEERKQNKVEAKLRAKQEQEAKQKLEEDAEMKSLEEKIGCLLKFSGDLDDQTCREDLHILFSNHGEIKWIDFVRGAKEGIILFKEKAKEALGKAKDANNGNLQLRNKEVTWEVLEGEVEKEALKKIIEDQQESLNKWKSKGRRFKGKGKGNKAAQPGSGKGKVQFQGKKTKFASDDEHDEHDENGATGPVKRAREETDKEEPASKQQKTENGAGDQ
notes: La protein, human, with Cys18 changed to alanine; Runs as 50 kDa La protein
B2: double cysteine mutant of La protein (La_C232A_C245A) (natural protein, human, UniProt P05455 1-408, looked up)
chain: B1 chain with A18C, C232A, C245A
notes: La protein, human, with Cys232 and Cys245 changed to alanine
B3: La 1-371 (domain or fragment, human, UniProt P05455 1-371, looked up)
chain: MAENGDNEKMAALEAKICHQIEYYFGDFNLPRDKFLKEQIKLDEGWVPLEIMIKFNRLNRLTTDFNVIVEALSKSKAELMEISEDKTKIRRSPSKPLPEVTDEYKNDVKNRSVYIKGFPTDATLDDIKEWLEDKGQVLNIQMRRTLHKAFKGSIFVVFDSIESAKKFVETPGQKYKETDLLILFKDDYFAKKNEERKQNKVEAKLRAKQEQEAKQKLEEDAEMKSLEEKIGCLLKFSGDLDDQTCREDLHILFSNHGEIKWIDFVRGAKEGIILFKEKAKEALGKAKDANNGNLQLRNKEVTWEVLEGEVEKEALKKIIEDQQESLNKWKSKGRRFKGKGKGNKAAQPGSGKGKVQFQGKKTKFASDDEHD
notes: La protein, human, residues 1-371 (holds the Dim domain)
B4: La 278-408 (domain or fragment, human, UniProt P05455 278-408, looked up)
chain: KAKEALGKAKDANNGNLQLRNKEVTWEVLEGEVEKEALKKIIEDQQESLNKWKSKGRRFKGKGKGNKAAQPGSGKGKVQFQGKKTKFASDDEHDEHDENGATGPVKRAREETDKEEPASKQQKTENGAGDQ
B5: La 1-245 (domain or fragment, human, UniProt P05455 1-245, looked up)
chain: MAENGDNEKMAALEAKICHQIEYYFGDFNLPRDKFLKEQIKLDEGWVPLEIMIKFNRLNRLTTDFNVIVEALSKSKAELMEISEDKTKIRRSPSKPLPEVTDEYKNDVKNRSVYIKGFPTDATLDDIKEWLEDKGQVLNIQMRRTLHKAFKGSIFVVFDSIESAKKFVETPGQKYKETDLLILFKDDYFAKKNEERKQNKVEAKLRAKQEQEAKQKLEEDAEMKSLEEKIGCLLKFSGDLDDQTC
notes: La protein, human, residues 1-245 (lacks the Dim domain)
B6: La 239-408 (domain or fragment, human, UniProt P05455 239-408, looked up)
chain: DLDDQTCREDLHILFSNHGEIKWIDFVRGAKEGIILFKEKAKEALGKAKDANNGNLQLRNKEVTWEVLEGEVEKEALKKIIEDQQESLNKWKSKGRRFKGKGKGNKAAQPGSGKGKVQFQGKKTKFASDDEHDEHDENGATGPVKRAREETDKEEPASKQQKTENGAGDQ
B7: LaN, C-terminally truncated La fragment aa1-192 (domain or fragment, human, UniProt P05455 1-192, looked up)
chain: MAENGDNEKMAALEAKICHQIEYYFGDFNLPRDKFLKEQIKLDEGWVPLEIMIKFNRLNRLTTDFNVIVEALSKSKAELMEISEDKTKIRRSPSKPLPEVTDEYKNDVKNRSVYIKGFPTDATLDDIKEWLEDKGQVLNIQMRRTLHKAFKGSIFVVFDSIESAKKFVETPGQKYKETDLLILFKDDYFAKK
notes: La protein, human, residues 1-192 (La motif plus RRM1 domain); also called La 1-192
B8: LaC, C-terminal La fragment aa194-408 (domain or fragment, human, UniProt P05455 194-408, looked up)
chain: EERKQNKVEAKLRAKQEQEAKQKLEEDAEMKSLEEKIGCLLKFSGDLDDQTCREDLHILFSNHGEIKWIDFVRGAKEGIILFKEKAKEALGKAKDANNGNLQLRNKEVTWEVLEGEVEKEALKKIIEDQQESLNKWKSKGRRFKGKGKGNKAAQPGSGKGKVQFQGKKTKFASDDEHDEHDENGATGPVKRAREETDKEEPASKQQKTENGAGDQ

Substitutions are numbered along the chain they refer to.

Data set [1] deals with the molecule itself. The experiment in a line: non-reducing SDS-PAGE and immunoblotting; purified La proteins as isolated (untreated) or treated with 2 mM CuSO4 (oxidized), sample buffer without ß-mercaptoethanol; blots with anti-La mAb SW5 or 7B6; shows only species held by disulfide bridges. (In general: Immunoblotting shows a protein as a band on a membrane.)
Data set [2] deals with T1, full-length human La protein (La 1-408) (human, UniProt P05455 1-408).
T1 construct: Cloned into pET28b; also called La/SS-B; wild-type La protein
T1 sequence (looked up): B1 chain with A18C
The experiment in a line: SPR; full-length human La protein (La1-408) covalently linked to the sensor chip; BSA-coupled chip as control; La 1-408 or deletion mutants as analytes. As to conditions: both partners purified. (In SPR one partner is held on a chip, and binding of the other changes the refractive index at the surface.)

The target of data set [3] is B8. The experiment in a line: far-Western, overlay or dot blot; His-tagged La fragments separated by SDS-PAGE and blotted; after blocking the membrane was incubated with unlabeled full-length La protein (or LaN); bound probe detected with the anti-La mAb SW5 (Figure 5C also with 5B9). As to conditions: both partners purified.
The target of data set [4] is T1, full-length human La protein (La 1-408). The data set is described as above. As to conditions: both partners purified.

For B1, the binding result in data set [1] was “binds”.
One may read the stoichiometry N as the number of molecules, sites or subunits per partner or assembly. As to B2, the “stoichiometry N” value in data set [1] is 2.
Turning to B3, the binding result in data set [2] was “binds”.
On the same count and under the same terms, to B4 belongs “binds”.
For the molecule B5, the binding result in data set [2] was “binds”.
In the case of B6, in data set [2], the binding result is listed as “binds”.
Take B7: the binding result in data set [3] was “binds”.
As to B8, the binding result in data set [4] is “binds”.
